Measurements taken from the supplement of paper PMC7125110.
± gives the standard error. Fewer inactive variants are shown than the library holds.

B1: glmS ribozyme (parent)
chain: AUAAAAGCGCCAGAACUACAGAAAUGUAGUUGACGAGGAGGAGGUUUAUCGAAUUUUCGGCGGAUGCCUCCAAA

Legend:
Settings in all cases: with glucosamine-6-phosphate
[1] = variants of: B1; assay: self-cleavage kobs at 160 uM GlcN6P; higher = faster cleavage; RNA array
In short: (§1)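 Barcoded ribozyme variants, transcribed in situ by E. coli RNA polymerase on sequenced MiSeq chips, were followed via a hybridised Cy3 probe at 37 °C. Glucosamine-6-phosphate ranged from 40 μM to 10 mM in HEPES/KCl/Mg(OAc)2 buffer. kobs came from decay fits to per-tile medians, and kcat and KM from weighted Michaelis–Menten fits.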

[2] = variants of: B1; assay: self-cleavage kobs at 10000 uM GlcN6P; higher = faster cleavage; RNA array
In short: as §1

[3] = variants of: B1; assay: self-cleavage kobs at 640 uM GlcN6P; higher = faster cleavage; RNA array
In short: as §1

[4] = variants of: B1; assay: self-cleavage kobs at 2500 uM GlcN6P; higher = faster cleavage; RNA array
In short: as §1

Variant	self-cleavage kobs at 160 uM GlcN6P [1] [s⁻¹]	self-cleavage kobs at 10000 uM GlcN6P [2] [s⁻¹]	self-cleavage kobs at 640 uM GlcN6P [3] [s⁻¹]	self-cleavage kobs at 2500 uM GlcN6P [4] [s⁻¹]
G7A U54G	< 1e-05	4.41e-05 ± 1.5e-05	–	–
C34A G41C	< 1e-05	< 1e-05	< 1e-05	< 1e-05
G44A U56A C70U	< 1e-05	–	< 1e-05	–
A6C A12G C68G C70G	< 1e-05	–	< 1e-05	< 1e-05
U49G C61U C71A	–	< 1e-05	< 1e-05	< 1e-05
G7U A52C	< 1e-05	< 1e-05	< 1e-05	–
U31A A33G	< 1e-05	< 1e-05	< 1e-05	–
G9A C67A C68G	< 1e-05	–	< 1e-05	< 1e-05
G26U U31C U47A A64G	–	–	0.000213 ± 6.9e-05	–
A14C A42G G66A	–	0.00177 ± 0.0006	0.000473 ± 0.00012	–
C16A A33G A64G C71G	8.57e-05 ± 3.4e-05	–	–	6.35e-05 ± 2.8e-05
G59C G63A	< 1e-05	< 1e-05	< 1e-05	–
C34U U49G A52U	< 1e-05	< 1e-05	–	< 1e-05
C34A U45G G66U U69G	< 1e-05	–	< 1e-05	< 1e-05
G13U A14U C58A C67U	5.09e-05 ± 1.8e-05	–	0.000194 ± 4.3e-05	0.000334 ± 7.5e-05
G13A C34G G62U	< 1e-05	–	< 1e-05	–
G41C U54G C67U	< 1e-05	–	–	–
A6G A15C U45A G59A	< 1e-05	–	< 1e-05	< 1e-05
G60U G63C C70G	< 1e-05	–	< 1e-05	–
A33G A53C C71U	< 1e-05	–	–	–
A14G G35A	< 1e-05	< 1e-05	< 1e-05	< 1e-05
A12G G40A C61U	< 1e-05	–	–	–

Variant	self-cleavage kobs at 160 uM GlcN6P [1] [s⁻¹]	self-cleavage kobs at 10000 uM GlcN6P [2] [s⁻¹]	self-cleavage kobs at 640 uM GlcN6P [3] [s⁻¹]	self-cleavage kobs at 2500 uM GlcN6P [4] [s⁻¹]
C8G G9U G51C	–	–	< 1e-05	–
G9U A48U U57A	< 1e-05	< 1e-05	–	< 1e-05
G7U G9A C16U G29A A53U G59A G66A U69G	< 1e-05	–	< 1e-05	–
G35C U49G	< 1e-05	–	< 1e-05	< 1e-05
U30A G41U U57G G62A	< 1e-05	–	< 1e-05	< 1e-05
C50A G51U U55C	–	–	< 1e-05	< 1e-05
C10G A48G A64U U65A	< 1e-05	–	< 1e-05	< 1e-05
C8U A52G	< 1e-05	< 1e-05	< 1e-05	< 1e-05
C11G A14C U69A	0.000527 ± 0.00014	–	–	9.25e-05 ± 3.6e-05
A39G G63U	< 1e-05	< 1e-05	< 1e-05	< 1e-05
G9C C10U G13U	–	–	< 1e-05	–
G51U U55G C58G C61G	3.64e-05 ± 1.6e-05	–	–	–
G13C A14G U55G G59U C68G	0.000122 ± 5.4e-05	–	0.000281 ± 7e-05	9.91e-05 ± 3.7e-05
G51U A52U U65G	< 1e-05	–	< 1e-05	< 1e-05
A14G G29U A52C C68A	0.000918 ± 0.00046	–	0.000113 ± 4.7e-05	–
G9U C11G G41U	–	–	< 1e-05	–
G41A G60A G63U	< 1e-05	< 1e-05	< 1e-05	< 1e-05
C8G C11A	< 1e-05	< 1e-05	< 1e-05	< 1e-05
G38U U56G C70A	–	–	0.000333 ± 0.00015	–
G37A G59A G62A	< 1e-05	–	–	–
C67G C68A	7.05e-05 ± 2.1e-05	–	3.85e-05 ± 1.1e-05	2.05e-05 ± 7.5e-06
A52C A53G G62C	< 1e-05	< 1e-05	–	–

Variant	self-cleavage kobs at 160 uM GlcN6P [1] [s⁻¹]	self-cleavage kobs at 10000 uM GlcN6P [2] [s⁻¹]	self-cleavage kobs at 640 uM GlcN6P [3] [s⁻¹]	self-cleavage kobs at 2500 uM GlcN6P [4] [s⁻¹]
A33C G40C A52G G63A	< 1e-05	–	< 1e-05	< 1e-05
U69G C70G	3.61e-05 ± 8.8e-06	–	0.000255 ± 0.00013	3.6e-05 ± 9.1e-06
G38C U45A	< 1e-05	–	< 1e-05	–
A12U G35A G40U	< 1e-05	–	< 1e-05	< 1e-05
G32U G35C U46A C67G C68A	–	–	0.000467 ± 0.00023	–
A6U A33G U54A	–	–	< 1e-05	–
C34G A64U C67U	< 1e-05	–	< 1e-05	–
C8A C50U U55C	< 1e-05	–	< 1e-05	–
C8G A42U C58U	< 1e-05	–	–	< 1e-05
A6C G37U U49A	–	< 1e-05	< 1e-05	–
G9U A48U C67G	< 1e-05	–	< 1e-05	< 1e-05
C8G C34G A52G	< 1e-05	–	< 1e-05	–
G29U A42G A53U	0.000316 ± 6.8e-05	–	0.00125 ± 0.00026	0.00271 ± 0.00069
G29A U31G G62A	< 1e-05	–	–	–
U30G U56A C68G	–	–	5.24e-05 ± 2.3e-05	–
G35C G38A	–	–	< 1e-05	< 1e-05
G38A G59C G62U	–	–	< 1e-05	–
C11U A42U G43U A53G C68G	0.0001 ± 3.7e-05	–	0.000213 ± 6.4e-05	0.0001 ± 3.5e-05
U57C G63A	< 1e-05	< 1e-05	< 1e-05	< 1e-05
U49C G51C	< 1e-05	–	< 1e-05	< 1e-05
C8U C10G C67G	–	–	0.000675 ± 0.00032	–
G9U A33C C67G	< 1e-05	–	–	< 1e-05

Variant	self-cleavage kobs at 160 uM GlcN6P [1] [s⁻¹]	self-cleavage kobs at 10000 uM GlcN6P [2] [s⁻¹]	self-cleavage kobs at 640 uM GlcN6P [3] [s⁻¹]	self-cleavage kobs at 2500 uM GlcN6P [4] [s⁻¹]
G9A U46C G63C	< 1e-05	–	< 1e-05	–
C16A U31C A33G C34A A52U C68U	–	–	< 1e-05	–
G9U A42G	–	–	< 1e-05	–
C61A A64C	< 1e-05	< 1e-05	< 1e-05	< 1e-05
U30C G32U U47A	–	–	0.000115 ± 3.3e-05	0.000106 ± 3e-05
G9C U45A C68A	–	–	< 1e-05	< 1e-05
U47G C50A A64G U69G	0.000158 ± 4.6e-05	3.49e-05 ± 1.6e-05	0.000155 ± 3.9e-05	0.000142 ± 3.1e-05
A36U C61G C70G	6.28e-05 ± 2.3e-05	–	9.55e-05 ± 2.6e-05	–
C11G A36C G41C G60A	< 1e-05	–	< 1e-05	< 1e-05
A12G G13U G62A	–	–	< 1e-05	–
A33G G37A A39C G63C C68G	< 1e-05	–	< 1e-05	–
A39C G41U U46G	< 1e-05	–	–	–
A6U A15C U55A G66U	< 1e-05	–	< 1e-05	< 1e-05
A12C G29C A52C A64C	< 1e-05	–	< 1e-05	–
A14G G35A U47C C67A	< 1e-05	–	< 1e-05	–
C34G G40U G62C	< 1e-05	–	–	–
G9U U56G U65C C67G	–	–	< 1e-05	–
C16A U49C	< 1e-05	< 1e-05	< 1e-05	–
G35A C68U	< 1e-05	–	–	< 1e-05
G7A G37A	< 1e-05	< 1e-05	< 1e-05	–
G32U C34A G40C U57A G62U	< 1e-05	–	–	–
G9A G29A A42G A48C U65A	< 1e-05	–	< 1e-05	< 1e-05

Variant	self-cleavage kobs at 160 uM GlcN6P [1] [s⁻¹]	self-cleavage kobs at 10000 uM GlcN6P [2] [s⁻¹]	self-cleavage kobs at 640 uM GlcN6P [3] [s⁻¹]	self-cleavage kobs at 2500 uM GlcN6P [4] [s⁻¹]
C16A G35A G43A	< 1e-05	–	< 1e-05	< 1e-05
C11U A39G G43U C58G C70A	< 1e-05	–	–	< 1e-05
G29C G44A G60A A64G	< 1e-05	–	< 1e-05	< 1e-05
A39G A42U A64C	< 1e-05	–	< 1e-05	< 1e-05
A39C G51U C71A	< 1e-05	–	–	–
C10A A33C G44A A52G U65A	< 1e-05	–	–	–
C8U G60U C68U	< 1e-05	< 1e-05	< 1e-05	< 1e-05
G9A G44C C68U U69A	–	–	< 1e-05	–
C34G G38U G44C U49C	< 1e-05	–	–	–
A14U U30C G43A	< 1e-05	–	< 1e-05	< 1e-05
G7C C50U G51U C70A	< 1e-05	–	–	< 1e-05
G44U G62U C68A	–	–	< 1e-05	< 1e-05
A52U G60A G66C	< 1e-05	–	< 1e-05	–
A52G U55G G63U	–	–	< 1e-05	0.000758 ± 0.0003
C34A C58A	< 1e-05	< 1e-05	< 1e-05	< 1e-05
G44A U54C U65G C68G	< 1e-05	–	< 1e-05	< 1e-05
C16U G37U C68G U69G	4.65e-05 ± 2.2e-05	–	0.000144 ± 7.1e-05	4.23e-05 ± 1.8e-05
G32C G51C C68U	< 1e-05	–	–	< 1e-05
